Test results from PMC5691071, “Single molecule multiplexed nanopore protein screening in human serum using aptamer modified DNA carriers”.

Molecular target: acetylcholinesterase (AChE) (UniProt O42275 24-633)
Assay: single-molecule nanopore; 100 pM lambda DNA carrier also carrying TBA probe and thrombin, 100 mM KCl; Nanopore: 100 mM KCl Tris-EDTA, pH 8, 45 min incubation; EMSA thrombin: 140 mM NaCl, 20 mM MgCl2, 20 mM PBS pH 7.4, 45 min; EMSA AChE: 2.7 mM KCl, 4 mM MgCl2, PBS pH 7.4, 1 h; temperature not stated
Settings: protein: commercial; chain copies: 4; free oligo in EMSA

Chain of acetylcholinesterase (AChE) (O42275 24-633): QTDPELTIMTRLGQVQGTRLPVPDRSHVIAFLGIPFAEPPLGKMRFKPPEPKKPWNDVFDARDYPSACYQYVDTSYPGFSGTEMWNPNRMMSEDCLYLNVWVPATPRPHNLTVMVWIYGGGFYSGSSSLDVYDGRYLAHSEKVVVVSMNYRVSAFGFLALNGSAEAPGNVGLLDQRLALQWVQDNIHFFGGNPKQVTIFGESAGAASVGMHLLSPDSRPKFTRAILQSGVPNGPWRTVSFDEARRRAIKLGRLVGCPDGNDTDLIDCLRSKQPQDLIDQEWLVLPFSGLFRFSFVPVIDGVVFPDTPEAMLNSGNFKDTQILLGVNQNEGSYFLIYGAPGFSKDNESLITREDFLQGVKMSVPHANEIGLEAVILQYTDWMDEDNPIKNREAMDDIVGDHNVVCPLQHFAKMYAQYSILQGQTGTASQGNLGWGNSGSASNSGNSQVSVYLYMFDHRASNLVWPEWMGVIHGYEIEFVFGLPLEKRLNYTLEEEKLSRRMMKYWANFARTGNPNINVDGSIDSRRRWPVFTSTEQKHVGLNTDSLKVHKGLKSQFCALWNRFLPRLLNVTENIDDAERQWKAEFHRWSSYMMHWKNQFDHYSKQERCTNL

B1: Target ii AChE probe (75 nt) (mixed)
DNA: GGTTGACTGTAGCTCTGGCAGACGTAGTGTGAAGGTACCGGGCGGCGACCTAAGGTGTCGTGCGTAAGTTTTTAA
Q: Does B1 bind?
A: Result: binds
